Reference: patent US20260241049A1, “Radiopharmaceutical Compositions Targeting Glypican-3 and Uses Thereof” (RayzeBio, Inc., priority 2023, published 2026)
Starred links: 1 amine or outer side, 2 acyl side, 3 side chain; linkers in the order of their positions; H or OH if unused. Positions of bridges follow the written chain, without caps; N, C: chain ends. Non-standard residues stand in square brackets, D forms with d. Groups on a side chain read outwards from the residue. Primed or numbered codes have the meaning given here. *: point of attachment. MeKCOpipzaa″ = (2S)-6-{[4-(carboxymethyl)piperazine-1-carbonyl]amino}-2-(methylamino)hexanoic acid, CN([C@@H](CCCCNC(=O)N1CCN(CC(=O)[*:3])CC1)C(=O)[*:2])[*:1]; MeDapCOpipzaa = 3-(4-(carboxymethyl)piperazine-1-carboxamido)-2-(methylamino)propanoic acid, CN([C@@H](CNC(=O)N1CCN(CC(=O)[*:3])CC1)C(=O)[*:2])[*:1]; MeKCOpipzaa = N-alpha-methyl-N6-[4-(carboxymethyl)piperazine-1-carbonyl]-L-lysine, CN([C@@H](CCCCNC(=O)N1CCN(CC(=O)[*:3])CC1)C(=O)[*:2])[*:1]; W5N = 2-amino-3-(1H-pyrrolo[3,2-c]pyridin-3-yl)propanoic acid (5-aza-tryptophan), O=C([C@H](Cc1c[nH]c2ccncc12)N[*:1])[*:2]; 3Py6NHaa = 2-amino-3-(6-((carboxymethyl)amino)pyridin-3-yl)propanoic acid, O=C([C@H](Cc1ccc(NCC(=O)[*:3])nc1)N[*:1])[*:2]; F4aao″ = 2-amino-3-(4-(carboxymethoxy)phenyl)propanoic acid, O=C([C@H](Cc1ccc(OCC(=O)[*:3])cc1)N[*:1])[*:2]; F4aao = 4-(carboxymethoxy)-L-phenylalanine, O=C([C@H](Cc1ccc(OCC(=O)[*:3])cc1)N[*:1])[*:2]; MeHseMe = N-methyl-O-methyl-L-homoserine, COCC[C@@H](C(=O)[*:2])N(C)[*:1]; Thr(Me)(3) = TMe, O-methyl-L-threonine, CO[C@H](C)[C@H](N[*:1])C(=O)[*:2]; Thr(Me)″ = TMe = O-methyl-L-threonine, CO[C@H](C)[C@H](N[*:1])C(=O)[*:2]; SulfoCy5 = sulfo-Cyanine5 hexanoyl dye on the side-chain amine; TMe = O-methyl-L-threonine, CO[C@H](C)[C@H](N[*:1])C(=O)[*:2]; NMeAla(isoquinolin-7-yl) = CN[C@@H](Cc1ccc2ccncc2c1)C(=O)O; SulfoCy5(3) = sulfo-Cyanine5 hexanoyl dye on the lysine NZ; PEG12 = NCCOCCOCCOCCOCCOCCOCCOCCOCCOCCOCCOCCOCCC(=O)O; 3Pal(6-Ph) = N[C@@H](Cc1ccc(-c2ccccc2)nc1)C(=O)O; Biotin = O=C1N[C@H]2[C@H](CS[C@H]2CCCCC(=O)*)N1; Phe(4-COOH) = N[C@@H](Cc1ccc(C(=O)O)cc1)C(=O)O; S3REt = (3R)-2-amino-3-hydroxypentanoic acid; NMe2Nal = CN[C@@H](Cc1ccc2ccccc2c1)C(=O)O; d(tBuAla) = CC(C)(C)C[C@@H](N)C(=O)O; AEF = NCCOc1ccc(C[C@H](N)C(=O)O)cc1; NMe3Pal = CN[C@@H](Cc1cccnc1)C(=O)O; NMeY = CN[C@@H](Cc1ccc(O)cc1)C(=O)O; NMeI = CC[C@H](C)[C@H](NC)C(=O)O; aIle = CC[C@@H](C)[C@H](N)C(=O)O; NMeQ = CN[C@@H](CCC(N)=O)C(=O)O; NMeK = CN[C@@H](CCCCN)C(=O)O; NMeC = CN[C@@H](CS)C(=O)O; NMeA = CN[C@@H](C)C(=O)O

B1: Macrocyclic peptide of Example 2-38 (SEQ ID No. 55) (peptide)
peptide: KSDXFTIXFGXC
modifications: not fully specified; MeKCOpipzaa-MeHseMe-D-MeDapCOpipzaa-F4COO-TMe-I-Yae-MeNal27N-G-3Py6Ph-MeC-NH2; thioether ring from N-terminal acetyl to MeC12
B2: Macrocyclic peptide of Example 2-26 (SEQ ID No. 30) (peptide)
peptide: {CH2CO}-[NMeK][NMeI]D[NMeQ][Phe(4-COOH)][Thr(Me)(3)]I[F4aao][NMeAla(isoquinolin-7-yl)]G[3Pal(6-Ph)][NMeC]-NH2
modifications: thioether N-12
SMILES: CC[C@H](C)[C@@H]1NC(=O)[C@H]([C@@H](C)OC)NC(=O)[C@H](Cc2ccc(C(=O)O)cc2)NC(=O)[C@H](CCC(N)=O)N(C)C(=O)[C@H](CC(=O)O)NC(=O)[C@H]([C@@H](C)CC)N(C)C(=O)[C@H](CCCCN)N(C)C(=O)CSC[C@@H](C(N)=O)N(C)C(=O)[C@H](Cc2ccc(-c3ccccc3)nc2)NC(=O)CNC(=O)[C@H](Cc2ccc3ccncc3c2)N(C)C(=O)[C@H](Cc2ccc(OCC(=O)O)cc2)NC1=O
B3: Macrocyclic peptide of Example 2-39 (SEQ ID No. 67) (peptide)
peptide: ASDYIIYFGXC
modifications: not fully specified; MeA-S-(position 3 absent)-D-Y-I-I-Y-MeNal2-G-3Py6Ph-MeC-NH2; thioether ring from N-terminal acetyl to MeC
notes: 11 residues
B4: Macrocyclic peptide of Example 2-41 (SEQ ID No. 68) (peptide)
peptide: {CH2CO}-[NMeA]S[W5N]YIIY[NMe2Nal]G[3Pal(6-Ph)][NMeC]-NH2
modifications: thioether N-11
SMILES: CC[C@H](C)[C@@H]1NC(=O)[C@H](Cc2ccc(O)cc2)NC(=O)[C@H](Cc2c[nH]c3ccncc23)NC(=O)[C@H](CO)NC(=O)[C@H](C)N(C)C(=O)CSC[C@@H](C(N)=O)N(C)C(=O)[C@H](Cc2ccc(-c3ccccc3)nc2)NC(=O)CNC(=O)[C@H](Cc2ccc3ccccc3c2)N(C)C(=O)[C@H](Cc2ccc(O)cc2)NC(=O)[C@H]([C@@H](C)CC)NC1=O
notes: 11 residues
B5: Macrocyclic peptide of Example 2-44 (SEQ ID No. 69) (peptide)
peptide: {CH2CO}-[NMeA][NMe3Pal]DY[aIle]IY[NMe2Nal]G[3Pal(6-Ph)][NMeC]-NH2
modifications: thioether N-11
SMILES: CC[C@@H](C)[C@@H]1NC(=O)[C@H](Cc2ccc(O)cc2)NC(=O)[C@H](CC(=O)O)NC(=O)[C@H](Cc2cccnc2)N(C)C(=O)[C@H](C)N(C)C(=O)CSC[C@@H](C(N)=O)N(C)C(=O)[C@H](Cc2ccc(-c3ccccc3)nc2)NC(=O)CNC(=O)[C@H](Cc2ccc3ccccc3c2)N(C)C(=O)[C@H](Cc2ccc(O)cc2)NC(=O)[C@H]([C@@H](C)CC)NC1=O
notes: 11 residues
B6: Macrocyclic peptide of Example B8 (SEQ ID No. 42) (peptide)
peptide: {CH2CO}-[NMeK](d(tBuAla))[NMeI]D[NMeQ][Phe(4-COOH)]II[F4aao][NMeAla(isoquinolin-7-yl)]G[3Pal(6-Ph)][NMeC]-NH2
modifications: thioether N-12
SMILES: CC[C@H](C)[C@@H]1NC(=O)[C@H](Cc2ccc(C(=O)O)cc2)NC(=O)[C@H](CCC(N)=O)N(C)C(=O)[C@H](CC(=O)O)NC(=O)[C@H]([C@@H](C)CC)N(C)C(=O)[C@H](CCCCNC(=O)[C@H](N)CC(C)(C)C)N(C)C(=O)CSC[C@@H](C(N)=O)N(C)C(=O)[C@H](Cc2ccc(-c3ccccc3)nc2)NC(=O)CNC(=O)[C@H](Cc2ccc3ccncc3c2)N(C)C(=O)[C@H](Cc2ccc(OCC(=O)O)cc2)NC(=O)[C@H]([C@@H](C)CC)NC1=O
B7: PLB-35 (peptide)
peptide: KQDQFTIFFGXC
modifications: biotin-PEG12c conjugate of the peptide of SEQ ID No. 35 (MeK-MeQ-D-MeQ-F4COO-TMe-I-F4aao-MeNal27N-G-3Py6Ph-MeC-NH2); site of attachment shown only in a drawing; thioether ring from N-terminal acetyl to MeC12
B8: PLB-1 (peptide)
peptide: {CH2CO}-[NMeK]([PEG12-Biotin])[NMeI]D[NMeQ][Phe(4-COOH)]IIY[NMeAla(isoquinolin-7-yl)]G[3Pal(6-Ph)][NMeC]-NH2
modifications: thioether N-12
notes: Biotin conjugate
B9: Mod5 (peptide)
peptide: {CH2CO}-[NMeK](SulfoCy5)[MeHseMe]D[NMeQ][Phe(4-COOH)]II[F4aao][NMeAla(isoquinolin-7-yl)]G[3Pal(6-Ph)][NMeC]-NH2
modifications: thioether N-12
B10: Mod6 (peptide)
peptide: {CH2CO}-[NMeK](SulfoCy5)[NMeI]D[NMeQ][Phe(4-COOH)][TMe]IY[NMeAla(isoquinolin-7-yl)]G[3Pal(6-Ph)][NMeC]-NH2
modifications: thioether N-12
B11: PLD-1 (peptide)
peptide: {CH2CO}-[NMeK](SulfoCy5(3))[NMeI]D[NMeQ][Phe(4-COOH)]IIY[NMeAla(isoquinolin-7-yl)]G[3Pal(6-Ph)][NMeC]-NH2
modifications: thioether N-12
B12: Macrocyclic peptide of Example B9 (SEQ ID No. 33) (peptide)
peptide: {CH2CO}-[NMeK](dE)[NMeI]D[NMeQ][Phe(4-COOH)]II[F4aao][NMeAla(isoquinolin-7-yl)]G[3Pal(6-Ph)][NMeC]-NH2
modifications: thioether N-12
B13: Macrocyclic peptide of Example 2-42 (SEQ ID No. 31) (peptide)
peptide: {CH2CO}-[NMeK][NMeI]D[NMeQ][Phe(4-COOH)][TMe]I[F4aao″][NMeAla(isoquinolin-7-yl)]G[3Pal(6-Ph)][NMeC][dE]-NH2
modifications: thioether N-12
SMILES: CC[C@H](C)[C@@H]1NC(=O)[C@H]([C@@H](C)OC)NC(=O)[C@H](Cc2ccc(C(=O)O)cc2)NC(=O)[C@H](CCC(N)=O)N(C)C(=O)[C@H](CC(=O)O)NC(=O)[C@H]([C@@H](C)CC)N(C)C(=O)[C@H](CCCCN)N(C)C(=O)CSC[C@@H](C(=O)N[C@H](CCC(=O)O)C(N)=O)N(C)C(=O)[C@H](Cc2ccc(-c3ccccc3)nc2)NC(=O)CNC(=O)[C@H](Cc2ccc3ccncc3c2)N(C)C(=O)[C@H](Cc2ccc(OCC(=O)O)cc2)NC1=O
B14: Macrocyclic peptide of Example 2-28 (SEQ ID No. 44) (peptide)
peptide: {CH2CO}-[NMeA][MeHseMe]D[NMeQ][Phe(4-COOH)][Thr(Me)″]I[AEF][NMe2Nal]G[3Pal(6-Ph)][NMeC]-NH2
modifications: thioether N-12
B15: Macrocyclic peptide of Example 2-29 (SEQ ID No. 46) (peptide)
peptide: {CH2CO}-[NMeK][MeKCOpipzaa]D[MeDapCOpipzaa][Phe(4-COOH)][Thr(Me)″]I[F4aao][NMeAla(isoquinolin-7-yl)]G[3Pal(6-Ph)][NMeC]-NH2
modifications: thioether N-12
B16: Macrocyclic peptide of Example 2-30 (SEQ ID No. 47) (peptide)
peptide: {CH2CO}-[NMeK][MeKCOpipzaa]D[MeDapCOpipzaa][3Py6NHaa][Thr(Me)″]I[F4aao][NMeAla(isoquinolin-7-yl)]G[3Pal(6-Ph)][NMeC]-NH2
modifications: thioether N-12
B17: Macrocyclic peptide of Example 2-40 (SEQ ID No. 66) (peptide)
peptide: {CH2CO}-[NMeA][NMeY]DY[TMe]IY[NMe2Nal]G[3Pal(6-Ph)][NMeC]-NH2
modifications: thioether N-11
SMILES: CC[C@H](C)[C@@H]1NC(=O)[C@H]([C@@H](C)OC)NC(=O)[C@H](Cc2ccc(O)cc2)NC(=O)[C@H](CC(=O)O)NC(=O)[C@H](Cc2ccc(O)cc2)N(C)C(=O)[C@H](C)N(C)C(=O)CSC[C@@H](C(N)=O)N(C)C(=O)[C@H](Cc2ccc(-c3ccccc3)nc2)NC(=O)CNC(=O)[C@H](Cc2ccc3ccccc3c2)N(C)C(=O)[C@H](Cc2ccc(O)cc2)NC1=O
notes: 11 residues
B18: Macrocyclic peptide of Example 2-25 (SEQ ID No. 59) (peptide)
peptide: {CH2CO}-[MeKCOpipzaa″][MeHseMe]D[NMeQ][Phe(4-COOH)][S3REt]IY[NMeAla(isoquinolin-7-yl)]G[3Pal(6-Ph)][NMeC]-NH2
modifications: thioether N-12
B19: Macrocyclic peptide of Example 2-32 (SEQ ID No. 49) (peptide)
peptide: KKDKFTIFFGXC
modifications: not fully specified; MeK-MeKCOpipzaa-D-MeKCOpipzaa-F4COO-TMe-I-F4aaopipzaa-MeNal27N-G-3Py6Ph-MeC-NH2; thioether ring from N-terminal acetyl to MeC12

target: T1, Human Glypican3-Fc (ACRO Biosystems, GP3-H5258) (human, UniProt P51654 25-559); test: SPR (Biacore T200), Method B-3: Glypican3-Fc captured on Protein A chip, peptide as analyte
T1 construct: Bought fusion protein, captured in Methods B-2, B-3 and B-4; Catalogue number is printed only in Method B-2; not shown: Fc part of the bought fusion
Description: A Protein A sensor chip (Cytiva) was inserted into a Biacore T200 (Cytiva), priming was performed three times with a running buffer: HBS-P+, pH 7.4 (Cytiva), and equilibration was carried out at a flow rate of 30 μL/min. Glypican3-Fc was allowed to react for 60 seconds at a flow rate of 10 μL/min. After capturing human Glypican3-Fe, a peptide solution prepared to 10 mM in DMSO solution was diluted with a running buffer to a final concentration of 10 μM. […] Using the above samples, peptide kinetics for Glypican3 was obtained by SPR measurement. Kinetics evaluation of Glypican3 was performed by SPR measurements at a flow rate of 10 LL/min, setting the association time to 120 seconds and the disassociation time to 600 seconds.
The obtained data by Method B-1, Method B-2, Method B-3 and Method B-4 were analyzed by follow. Single Cycle Kinetics was used as the kinetics evaluation model, and curve fitting was performed using Biacore T200 Evaluation Software Version 3.0 (Cytiva).

Binder	Kd [nM]
B1	1.8
B2	0.3
B3	25.3
B4	58.5
B5	49.1
B6	0.57
B7	3.63
B8	0.25
B9	3.6
B10	0.24
B11	0.32
B12	0.52
B13	3.2
B14	0.3
B15	1
B16	6.6
B17	21.5
B18	6.6
B19	1.8
